Target: Mouse FGFR4/β-klotho complex co-expressed in rat L6 myoblast cells (mouse) (UniProt Q03142)
Assay: cell-based or functional assay

Chain of FGF19 (fibroblast growth factor 19, reference or wild type sequence) (O95750 23-216 limits assumed): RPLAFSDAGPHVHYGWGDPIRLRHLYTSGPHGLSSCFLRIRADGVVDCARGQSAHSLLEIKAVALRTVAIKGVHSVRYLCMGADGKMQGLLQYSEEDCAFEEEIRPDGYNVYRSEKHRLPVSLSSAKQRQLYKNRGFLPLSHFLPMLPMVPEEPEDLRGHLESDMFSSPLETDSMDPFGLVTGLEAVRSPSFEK
Chain of Mouse FGFR4/β-klotho complex co-expressed in rat L6 myoblast cells (mouse) (Q03142 17-799, chain 1 of 2): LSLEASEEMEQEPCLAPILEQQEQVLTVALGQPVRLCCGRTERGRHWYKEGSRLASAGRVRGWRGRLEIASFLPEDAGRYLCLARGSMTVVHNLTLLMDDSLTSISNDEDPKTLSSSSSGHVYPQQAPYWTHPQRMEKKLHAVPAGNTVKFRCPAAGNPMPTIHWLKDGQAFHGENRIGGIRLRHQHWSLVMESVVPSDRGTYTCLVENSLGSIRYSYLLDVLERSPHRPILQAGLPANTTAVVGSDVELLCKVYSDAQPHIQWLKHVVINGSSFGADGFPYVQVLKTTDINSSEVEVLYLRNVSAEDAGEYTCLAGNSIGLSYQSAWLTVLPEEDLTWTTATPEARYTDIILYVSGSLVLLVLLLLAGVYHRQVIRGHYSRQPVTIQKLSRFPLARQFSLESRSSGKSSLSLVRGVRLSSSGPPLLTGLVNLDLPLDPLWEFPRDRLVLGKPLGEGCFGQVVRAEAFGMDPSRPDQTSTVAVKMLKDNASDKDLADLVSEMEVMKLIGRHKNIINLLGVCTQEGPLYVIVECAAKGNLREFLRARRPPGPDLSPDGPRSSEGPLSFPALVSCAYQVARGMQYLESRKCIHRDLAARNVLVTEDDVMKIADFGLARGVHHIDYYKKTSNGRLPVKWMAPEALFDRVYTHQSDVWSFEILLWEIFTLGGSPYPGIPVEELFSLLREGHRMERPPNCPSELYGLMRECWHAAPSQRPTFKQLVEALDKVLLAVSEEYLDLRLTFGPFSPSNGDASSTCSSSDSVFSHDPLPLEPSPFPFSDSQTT
Chain of Mouse FGFR4/β-klotho complex co-expressed in rat L6 myoblast cells (mouse) (Q99N32 whole entry, chain 2 of 2, further chain): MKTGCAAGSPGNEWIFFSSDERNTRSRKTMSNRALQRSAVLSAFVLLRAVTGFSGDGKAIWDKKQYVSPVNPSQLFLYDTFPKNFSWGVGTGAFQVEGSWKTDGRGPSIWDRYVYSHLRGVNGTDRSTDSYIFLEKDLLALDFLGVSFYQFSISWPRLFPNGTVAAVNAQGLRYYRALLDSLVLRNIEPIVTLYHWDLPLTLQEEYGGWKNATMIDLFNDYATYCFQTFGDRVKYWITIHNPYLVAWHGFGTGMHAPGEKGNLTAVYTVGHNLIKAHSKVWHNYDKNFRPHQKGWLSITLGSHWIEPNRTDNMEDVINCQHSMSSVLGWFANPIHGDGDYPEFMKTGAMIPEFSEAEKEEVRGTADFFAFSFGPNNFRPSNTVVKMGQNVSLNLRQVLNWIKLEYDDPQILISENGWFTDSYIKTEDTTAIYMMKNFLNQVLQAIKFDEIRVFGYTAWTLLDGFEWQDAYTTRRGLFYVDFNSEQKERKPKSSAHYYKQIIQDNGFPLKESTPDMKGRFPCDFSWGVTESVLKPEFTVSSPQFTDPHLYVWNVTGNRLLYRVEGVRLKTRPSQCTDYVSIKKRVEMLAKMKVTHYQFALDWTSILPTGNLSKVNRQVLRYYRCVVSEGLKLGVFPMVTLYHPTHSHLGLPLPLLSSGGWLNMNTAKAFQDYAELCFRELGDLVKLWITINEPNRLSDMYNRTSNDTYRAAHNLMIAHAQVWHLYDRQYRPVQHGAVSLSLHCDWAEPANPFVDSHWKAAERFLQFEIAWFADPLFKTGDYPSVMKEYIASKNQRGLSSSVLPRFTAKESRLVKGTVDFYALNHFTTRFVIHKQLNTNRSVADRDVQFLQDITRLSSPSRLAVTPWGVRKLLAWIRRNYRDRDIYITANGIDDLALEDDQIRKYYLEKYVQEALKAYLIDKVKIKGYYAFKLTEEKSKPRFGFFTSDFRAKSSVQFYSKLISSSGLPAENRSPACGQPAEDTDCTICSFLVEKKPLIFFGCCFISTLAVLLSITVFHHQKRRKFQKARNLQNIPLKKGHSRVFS

FGF19 (fibroblast growth factor 19, reference or wild type sequence) (from UniProt O95750 23-216) (ligand)
EC50 (pM), ELK luciferase reporter assay in L6 cells: 52.5 pM | Emax (fold potentiation), ELK luciferase reporter assay in L6 cells (fold potentiation): 1.82

— US20150291677A1
